Experimental data as given in US20240272170A1 (QUANTUM SI, published 2024).
Residue numbers refer to the chain shown, from its start. Numbers in names are those of the source. Non-standard residues stand in square brackets, D forms with d. No end group written: not given here. *: point of attachment. FITC = O=C1OC2(c3ccc(O)cc3Oc3cc(O)ccc32)c2ccc(NC(=S)*)cc21; Lys(N3) = [N-]=[N+]=NCCCC[C@H](N)C(=O)O; pT = C[C@@H](OP(=O)(O)O)[C@H](N)C(=O)O; Met(O) = CS(=O)CC[C@H](N)C(=O)O; Cit = NC(=O)NCCC[C@H](N)C(=O)O

Legend:
[1] = target: T1, RA peptide (XAKLDEESILKQK-FITC, X = R); test: fluorescence polarization titration, 20 C
T1 construct: also called peptide with N-terminal arginine
T1 peptide: RAKLDEESILKQK(FITC)
Procedure: (§1) Binding affinity was measured by polarization using a labeled peptide. The polarization response and total intensity measurements were carried out at 20° C. on a microplate fluorometer with 480 nm excitation and 530 nm emission. […] Multiple analyses were performed at increasing recognizer concentration at a fixed concentration of a target peptide to obtain a titration curve. An equilibrium polarization response at each concentration was plotted and fit to calculate the KD.
(§2) Fluorescence polarization assays were performed with all candidates, and single point binding responses were measured at a fixed concentration of the binders (FIG. 13A). […] We carried out multiple polarization binding titration analysis at increasing concentration of binder protein, and the Kds were determined from the titration curves (FIG. 13B).

[2] = target: T2, target peptide Arg-Ala-Lys-Leu (RAKL); test: purified protein:peptide complex, X-ray crystallography
T2 peptide: RAKL

[3] = target: T1, RA peptide (XAKLDEESILKQK-FITC, X = R); test: fluorescence polarization titration, PS1122 0-5000 nM
Procedure: as §1, §2

[4] = target: T3, RA peptide (Octet assay of PS621 variants); test: Octet (BLI), 30 C
T3 construct: X… with X = R
Text: (§3) Peptides of the sequence RXKLDEESILKQK (SEQ ID NO: 1076) were also used to evaluate the penultimate residue effect.

[5] = target: T4, RL peptide (Octet assay of PS621 variants); test: Octet (BLI), 30 C
T4 construct: RXKLDEESILKQK with X = L
T4 peptide: RLKLDEESILKQK
Text: as §3

[6] = target: T5, RE peptide (Octet assay of PS621 variants); test: Octet (BLI), 30 C
T5 construct: RXKLDEESILKQK with X = E
T5 peptide: REKLDEESILKQK
Text: as §3

[7] = target: T6, RQ peptide (Octet assay of PS621 variants); test: Octet (BLI), 30 C
T6 construct: RX… with X = Q
Text: as §3

[8] = target: T7, RS peptide (Octet assay of PS621 variants); test: Octet (BLI), 30 C
T7 construct: RXKLDEESILKQK with X = S
T7 peptide: RSKLDEESILKQK
Text: as §3

[9] = target: T8, RR peptide (Octet assay of PS621 variants); test: Octet (BLI), 30 C
T8 construct: RX… with X = R
Text: as §3

[10] = target: T9, RF peptide (Octet assay of PS621 variants); test: Octet (BLI), 30 C
T9 construct: RX… with X = F
Text: as §3

[11] = target: T10, HA peptide (Octet assay of PS621 variants); test: Octet (BLI), 30 C
T10 construct: XAKLDEESILKQK with X = H
T10 peptide: HAKLDEESILKQK

[12] = target: T11, KA peptide (Octet assay of PS621 variants); test: Octet (BLI), 30 C
T11 construct: XAKLDEESILKQK with X = K
T11 peptide: KAKLDEESILKQK

[13] = target: RA Peptide (stopped-flow); test: stopped-flow rapid kinetics
[14] = target: RL Peptide (stopped-flow); test: stopped-flow rapid kinetics
[15] = target: T12, HL Peptide (stopped-flow); test: stopped-flow rapid kinetics
T12 construct: the text around it speaks of HA peptide

[16] = target: T13, labeled peptide X…-FITC with N-terminal valine (FITC on the C-terminal Lys); test: fluorescence polarization
T13 construct: also called VA peptide; valine peptide

[17] = target: T14, … after cleavage to N-terminal leucine (LAFAYPDDD) (not fully specified (C-terminus); also: C-terminal azidolysine linked to DNA-streptavidin); test: single-molecule dynamic sequencing on chip
T14 construct: N-terminus exposed by aminopeptidases
T14 peptide: LAFAYPDDD

[18] = target: T15, … after cleavage to N-terminal leucine (LIFAYPDDD) (not fully specified (C-terminus); also: C-terminal azidolysine linked to DNA-streptavidin); test: single-molecule dynamic sequencing on chip
T15 construct: N-terminus exposed by aminopeptidases
T15 peptide: LIFAYPDDD

[19] = target: T16, … after cleavage to N-terminal leucine (LVFAYPDDD) (not fully specified (C-terminus); also: C-terminal azidolysine linked to DNA-streptavidin); test: single-molecule dynamic sequencing on chip
T16 construct: N-terminus exposed by aminopeptidases
T16 peptide: LVFAYPDDD

[20] = target: T17, … after cleavage to N-terminal leucine (LMFAYPDDD) (not fully specified (C-terminus); also: C-terminal azidolysine linked to DNA-streptavidin); test: single-molecule dynamic sequencing on chip
T17 construct: first population of traces, methionine not oxidized
T17 peptide: LMFAYPDDD

[21] = target: T18, RLMoFAYPDDD after cleavage to N-terminal leucine (LMoFAYPDDD) (not fully specified (C-terminus); printed as LMoFAYPDDD; also: C-terminal azidoLys linked to DNA-streptavidin); test: single-molecule dynamic sequencing on chip
T18 construct: second population of traces, methionine oxidized
T18 peptide: L[Met(O)]FAYPDDD

[22] = target: T19, synthetic peptide LRLAFAYPDDDK (not fully specified (residue 12)); test: single-molecule dynamic sequencing on chip
T19 construct: also called QP707
T19 peptide: LRLAFAYPDDDK-NH2

[23] = target: T20, synthetic peptide LCitLAFAYPDDDK; test: single-molecule dynamic sequencing on chip
T20 construct: also called QP789
T20 peptide: L[Cit]LAFAYPDDDK

[24] = target: T21, … after cleavage to N-terminal leucine (LTFIAYPDDD); test: single-molecule dynamic sequencing on chip
T21 construct: N-terminus exposed by aminopeptidases
T21 peptide: LTFIAYPDDD

[25] = target: T22, RLpTFIAYPDDD after cleavage to N-terminal leucine (LpTFIAYPDDD); test: single-molecule dynamic sequencing on chip
T22 construct: N-terminus exposed by aminopeptidases
T22 peptide: L[pT]FIAYPDDD[Lys(N3)]

[26] = target: T23, target peptide Met-Ala-Lys-Leu (MAKL); test: purified protein:peptide complex, X-ray crystallography
T23 peptide: MAKL

[27] = target: T24, target peptide Ala-Ala-Lys-Leu (AAKL); test: as above
T24 peptide: AAKL

[28] = target: T25, labeled peptide XAKLDEESILKQK-FITC with N-terminal methionine; test: fluorescence polarization titration, FITC peptide (FIG. 9D)
T25 construct: also called MA peptide
T25 peptide: MAKLDEESILKQK(FITC)
Procedure: as §1

[29] = target: T13, labeled peptide X…-FITC with N-terminal …; test: fluorescence polarization titration, recognizer 0-4000 nM, labeled peptide fixed
Procedure: as §1

[30] = target: T26, labeled peptide X…-FITC with N-terminal leucine (FITC on the C-terminal Lys); test: fluorescence polarization titration, recognizer 0-5000 nM, labeled peptide fixed
T26 construct: the sentence itself names only the N-terminal residue; also called LA peptide
Procedure: as §1

[31] = target: T27, labeled peptide XAKLDEESILKQK-FITC with N-terminal isoleucine; test: as above
T27 construct: also called IA peptide
T27 peptide: IAKLDEESILKQK(FITC)
Procedure: as §1

[32] = target: peptide with N-terminal AK (lysine peptide of Example 12); test: single-molecule dynamic sequencing on chip
[33] = target: peptide with N-terminal AK{acetyl} (acetyl-lysine peptide of Example 12); test: single-molecule dynamic sequencing on chip

B1: PS1122 (designed binder)
chain: MHSKFSHAGRICGAKFKVGEPIYRCKECSFDDTCVLCVNCFNPKDHLGHHVYTTICTEFNNGECDCGDKTAWNHTLFCKAEEG
notes: PS621 with T47L, I63E, E70T; on chip labeled with streptavidin-tetraCy3
[1]
  Kd: 70 nM
[2]
  binding result: binds
[3]
  Kd: 70 nM

B2: PS621 (other)
chain: B1 chain with L47T, E63I, T70E
notes: UBR protein (UBR-box) parent of PS1101-PS1122
[4]
  Octet response: 9.3
[5]
  Octet response: 10.2
[6]
  Octet response: 5.8
[7]
  Octet response: 7.4
[8]
  Octet response: 7.1
[9]
  Octet response: 6.3
[10]
  Octet response: 8.4
[11]
  Octet response: 2
[12]
  Octet response: 5.2
[13]
  koff: 61.8 s⁻¹
[14]
  koff: 17.7 s⁻¹

B3: PS1115 (designed binder)
chain: B1 chain with L47R, F59R, E63I, T70E, T75E
notes: Variant of PS621
[4]
  Octet response: 10.8
[5]
  Octet response: 11.8
[6]
  Octet response: 7.6
[7]
  Octet response: 9.1
[8]
  Octet response: 8.5
[9]
  Octet response: 6.7
[10]
  Octet response: 10
[11]
  Octet response: 3
[12]
  Octet response: 6.5
[14]
  koff: 14.4 s⁻¹
[15]
  koff: 40.2 s⁻¹

B4: PS824 (designed binder)
chain: MPTAASATESAFEDTPAPARPEVDGRTKPKRQPRYHVVLWDDDDHTYQYVVVMLRSLFGHPPERGYRLAKEMDTQGRVIVLTTTREHAELKRDQIHAFGYDRLLARSKGSMKASIEAEE
notes: PS557 with I12F, N41D, Q55R, V72M
[16]
  fold improvement of binding against the wild-type protein PS557: 5 fold

B5: PS961 (designed binder)
chain: B4 chain with F12I, E63S, L68M, Y100R
notes: PS557 with N41D, Q55R, E63S, L68M, V72M, Y100R; His/biotinylation tag of the assay construct is not specified; also called Planctomycetes ClpS variant
[17]
  median pulse duration (PD): 1.29 s
[18]
  median pulse duration (PD): 2.22 s
[19]
  median pulse duration (PD): 4.21 s
[20]
  median pulse duration (PD): 0.86 s
[21]
  median pulse duration (PD): 0.35 s
[22]
  median pulse duration (PD): 0.43 s
[23]
  median pulse duration (PD): 0.78 s
[24]
  RS mean pulse duration (PD): 1.2 s
[25]
  RS mean pulse duration (PD): 0.3 s
[26]
  binding result: binds
[27]
  binding result: binds
[28]
  Kd: 947 nM
[29]
  Kd: 144 nM
[30]
  Kd: 55 nM
[31]
  Kd: 68 nM

B6: PS1165 (other)
chain: MGLENSLETLRFSISNLSMQTHAARMRTFMYWPSSVPVQPEQLASAGFYYVGRNDDVKCFCCDGGLRCWESGDDPWVEHAKWFPRCEFLIRMKGQEFVDEIQGRYPHLLEQLLSG
notes: alanine recognizer
[32]
  RS mean pulse duration (PD): 1.3 s
[33]
  RS mean pulse duration (PD): 2.2 s
